Results reported in the MegaScale stability set (Tsuboyama et al. 2023).

B1: EEHEE_rd4_0363 (parent)
chain: VTVDIKGMEYHFDNPEEAKKFAERMAKELGGELKVENGTLKVE
B2: EEHEE_rd4_0003 (parent)
chain: KKVTINGVEIKFNNPEEAVKFALELAKRLNLRIEFHGDQIKIE

Variants of: B1
Assay: folding stability dG (cDNA display proteolysis); higher = more stable
Details: PBS, room temperature

Folding stability dG [kcal/mol] of substitutions, site by site:
L40: T 0.992, D 0.757, W 2.28, F 1.94, H 0.973, A 0.864, M 1.67, S 0.813, V 1.35, Y 2.27, K 0.532
R24: D 1.68, Y 2.34, G 1.29, K 2.01, F 2.28, W 2.34, N 1.55
E23: G 0.124, R 1.16, V 1.55, H 1.11, A 1.48, I 1.87, F 1.27
I5: E 0.155, W 1.49, H 0.78, G 0.128, V 1.88, C 1.99, A 0.423
K34: P 0.802, Q 1.42, T 1.9, S 1.68, L 1.77
E9: M 2.92, G 1.26, Q 2.69, Y 2.6, P 1.47, W 2.25, I 3.25, C 3.28, D 0.904, H 2.51, S 2.32
D13: V 1.64, C 2.42, L 1.68, A 1.95, W 1.58, N 1.88, H 1.58, I 1.68, E 1.9
T2: D 0.711, Q 1.03, W 2.04, S 1.31
E16: P -0.084, A 1.78, R 1.27, Q 1.67, S 1.58, W 1.98, K 1.33, D 2.02
L33: V 2.81, F 1.47, Y 1.43, M 1.61, A 1.07, R 0.462, G 0.82, H 0.949
E28: A 1.81, W 2.26, Q 1.75, M 2.03, G 0.795, T 1.47, N 1.28
G38: A 1.13, T 1.17, K 0.662, D 1.3, P 0.815, Q 1.21, M 1.1
K27: Y 2.27, Q 2.09, H 1.87, N 1.75, P 0.089, F 2.35
G7: T 0.445, V 0.407, I 0.499, P 0.309, N 0.745, L 0.238
V3: K -0.032, T 0.19, S 0.004, A 0.392, I 1.18, M 0.639, H -0.104, P 0.059, Q 0.039, C 1.34
V35: R 1.25, N 1.73, S 1.61, I 2.27, A 1.53, F 2.38, W 3.09, M 2, C 2.78, Y 2.48
Y10: H 0.908, R 0.383, I 1.05, D -0.462, F 1.99, Q 0.239, E -0.466, M 0.781
D4: L 3.5, H 2.91, S 2.98, N 2.67, Y 3.35, C 3.39, E 2.56, G 1.39
K20: P -0.999, M 1.88, E 2.08, T 1.67, L 2.06, D 1.7
A18: L 0.471, S -0.064, C 1.03, R -0.072, H -0.269, E -0.431, V -0.372
V42: F 1.02, Q 0.74, W 1.06, N 0.799, T 0.943, K 0.582, I 2, C 1.4, G 0.841, M 0.942

Variants of: B2
Assay: as above
Details: PBS, room temperature

Folding stability dG [kcal/mol]: each site, then its substitutions
E43: S 2.99, T 3.27, Y 3.45, W 3.45, V 3.28
